The values that follow come from the supplement of paper PMC5998384.

The test system of data set [1] is HeLa Kyoto. Briefly: melting temperature (median over replicates), in situ; higher = more thermally stable.
For data set [2], the system named is HeLa Kyoto. Nature of the data set: solubility change mitosis vs G1/S (difference of NP-40 vs SDS log2 ratios) (log2 ratio difference); higher = more soluble in mitosis.
For data set [3], the system named is HeLa Kyoto. Briefly: solubility in G1/S (NP-40 vs SDS abundance) (log2 ratio); higher = more soluble. Particulars: cell cycle stage: G1/S.
Data set [4] deals with HeLa Kyoto. Nature of the data set: thermal stability score vs G1/S (z-score of summed log2 fold changes over temperatures); higher = more thermally stable than in G1/S.
The mark [5] stands for this setting: cell cycle stage: early G1 (4.5 h after nocodazole release).
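For melting temperature (median over replicates), in situ in this document: HeLa Kyoto cells synchronized by double thymidine or nocodazole block, proteins quantified by TMT10plex mass spectrometry, three independent biological replicates.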
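For solubility change mitosis vs G1/S (difference of NP-40 vs SDS log2 ratios) in this document: synchronized HeLa Kyoto cells (double thymidine block for G1/S, nocodazole release for mitosis), protein amounts in NP-40 versus SDS lysates quantified by mass spectrometry, three biological replicates.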
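For solubility in G1/S (NP-40 vs SDS abundance) in this document: HeLa Kyoto cells arrested at G1/S by double thymidine block, proteins quantified by TMT10plex mass spectrometry in mild NP-40 versus SDS extracts, three biological replicates.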
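For thermal stability score vs G1/S (z-score of summed log2 fold changes over temperatures) in this document: synchronized HeLa Kyoto cells, proteins quantified by TMT10plex mass spectrometry, three biological replicates, mitosis taken 0.5 h after nocodazole release, G1/S directly after double thymidine block.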

Turning to “MEPRPTAPSSGAPGLAGVGETPSAAALAAARVELPGTAVPSVPEDAAPASRDGGGVRDEGPAAAGDGLGRPLGPTPSQSRFQVDLVSENAGRAAAAAAAAAAAAAAAGAGAGAKQTPADGEASGESEPAKGSEEAKGRFRVNFVDPAASSSAEDSLSDAAGVGVDGPNVSFQNGGDTVLSEGSSLHSGGGGGSGHHQHYYYDTHTNTYYLRTFGHNTMDAVPRIDHYRHTAAQLGEKLLRPSLAELHDELEKEPFEDGFANGEESTPTRDAVVTYTAESKGVVKFGWIKGVLVRCMLNIWGVMLFIRLSWIVGQAGIGLSVLVIMMATVVTTITGLSTSAIATNGFVRGGGAYYLISRSLGPEFGGAIGLIFAFANAVAVAMYVVGFAETVVELLKEHSILMIDEINDIRIIGAITVVILLGISVAGMEWEAKAQIVLLVILLLAIGDFVIGTFIPLESKKPKGFFGYKSEIFNENFGPDFREEETFFSVFAIFFPAATGILAGANISGDLADPQSAIPKGTLLAILITTLVYVGIAVSVGSCVVRDATGNVNDTIVTELTNCTSAACKLNFDFSSCESSPCSYGLMNNFQVMSMVSGFTPLISAGIFSATLSSALASLVSAPKIFQALCKDNIYPAFQMFAKGYGKNNEPLRGYILTFLIALGFILIAELNVIAPIISNFFLASYALINFSVFHASLAKSPGWRPAFKYYNMWISLLGAILCCIVMFVINWWAALLTYVIVLGLYIYVTYKKPDVNWGSSTQALTYLNALQHSIRLSGVEDHVKNFRPQCLVMTGAPNSRPALLHLVHDFTKNVGLMICGHVHMGPRRQAMKEMSIDQAKYQRWLIKNKMKAFYAPVHADDLREGAQYLMQAAGLGRMKPNTLVLGFKKDWLQADMRDVDMYINLFHDAFDIQYGVVVIRLKEGLDISHLQGQEELLSSQEKSPGTKDVVVSVEYSKKSDLDTSKPLSEKPITHKVEEEDGKTATQPLLKKESKGPIVPLNVADQKLLEASTQFQKKQGKNTIDVWWLFDDGGLTLLIPYLLTTKKKWKDCKIRVFIGGKINRIDHDRRAMATLLSKFRIDFSDIMVLGDINTKPKKENIIAFEEIIEPYRLHEDDKEQDIADKMKEDEPWRITDNELELYKTKTYRQIRLNELLKEHSSTANIIVMSLPVARKGAVSSALYMAWLEALSKDLPPILLVRGNHQSVLTFYS [SLC12A2]”, the melting temperature in data set [1] (cell cycle stage: G1/S) turned out to be 53.4 °C; in data set [1] (cell cycle stage: mitosis), 53.3 °C. Also, the “solubility change mitosis (log2)” value in data set [2] is -0.137. In addition, the “solubility in G1/S (log2)” value in data set [3] is -0.0146. In addition, the thermal stability score is 1.53 in data set [4] (setting [5]) and 1.39 in data set [4] (cell cycle stage: mitosis).
Turning to “MSCESSMVLGYWDIRGLAHAIRLLLEFTDTSYEEKRYTCGEAPDYDRSQWLDVKFKLDLDFPNLPYLLDGKNKITQSNAILRYIARKHNMCGETEEEKIRVDIIENQVMDFRTQLIRLCYSSDHEKLKPQYLEELPGQLKQFSMFLGKFSWFAGEKLTFVDFLTYDILDQNRIFDPKCLDEFPNLKAFMCRFEALEKIAAYLQSDQFCKMPINNKMAQWGNKPVC [GSTM3]”, the melting temperature was determined as 47.9 °C in data set [1] (cell cycle stage: G1/S) and 48.3 °C in data set [1] (cell cycle stage: mitosis). In addition, in data set [2], the “solubility change mitosis (log2)” value was -0.117. Further, the “solubility in G1/S (log2)” value in data set [3] is 0.0979. Besides, the results for the thermal stability score in data set [4] (setting [5]) and in data set [4] (cell cycle stage: mitosis) were 1.24 and 3.37, respectively.
In the case of SPCS2, the melting temperature in data set [1] (cell cycle stage: G1/S) came out at 51.9 °C; in data set [1] (cell cycle stage: mitosis) it was 52.8 °C. Also, the “solubility change mitosis (log2)” value in data set [2] is -0.0337. Moreover, the “solubility in G1/S (log2)” value in data set [3] was determined as 0.173. Also, the thermal stability score in data set [4] (setting [5]) is -0.361; in data set [4] (cell cycle stage: mitosis) it was -0.329.
Consider “MAATLKSLKLVRYRAFCSPSAFGAVRSVSYWNVSSTQHGGQDPPEHISLCHSAKKVKNICSTFSSRRILTTSSAHPGLEFSKTSSSKASTLQLGSPRATGVDEEDVEVFDSFENMRVFLQLRPEYRVHSYNASETSQLLSVSEGELILHKVRVNQNNLQAQVIVDYLCKLSSLPAEQHPVLLGSTSFALLCQLSVKKIQLFDTQDLINVLKAFVILGIPHSHSMLDVYETKCCHQVWEMNMDQLLLVADLWRYLGRKVPRFLNIFSSYLNLHWKDLSLSQLVHLIYVIGENRQVSQDLMQKLESLILKYIDLINLEEVGTICLGFFKSSTNLSEFVMRKIGDLACANIQHLSSRSLVNIVKMFRFTHVDHINFMKQIGEIAPQRIPSLGVQGVMHLTLYCSALRFLNEGVMNAVAASLPPRVAHCRSKDVAKILWSFGTLNYKPPNAEEFYSSLISEIHRKMPEFNQYPEHLPTCLLGLAFLEYFPVELIDFALSPGFVRLAQERTKFDLLKELYTLDGTVGIECPDYRGNRLSTHLQQEGSELLWYLAEKDMNSKPEFLETVFLLETMLGGPQYVKHHMILPHTRSSDLEVQLDVNLKPLPFNREATPAENVAKLRLEHVGVSLTDDLMNKLLKGKARGHFQGKTESEPGQQPMELENKAAVPLGGFLCNVADKSGAMEMAGLCPAACMQTPRMKLAVQFTNRNQYCYGSRDLLGLHNMKRRQLARLGYRVVELSYWEWLPLLKRTRLEKLAFLHEKVFTSAL [FASTKD5]”, for which the melting temperature in data set [1] (cell cycle stage: G1/S) was found to be 49.5 °C; in data set [1] (cell cycle stage: mitosis), 49.8 °C. For the same substance, in data set [2], the “solubility change mitosis (log2)” value was -0.0689. In addition, the “solubility in G1/S (log2)” value in data set [3] is -0.184. Also, the thermal stability score in data set [4] (setting [5]) came out at 0.139; in data set [4] (cell cycle stage: mitosis), 1.05.
